Data set [1] can be described thus: Identifying reaction product by HPLC (TSK gel Amide-80). The settings on record: 2 mM fructosyl valyl histidine, 0.003U oxidase, 37° C. for 2 hours. The class given is biochemical. As for the experimental part:
Reaction solution was assayed by HPLC to identify reaction products. First, 50 μl of reaction solution (2 mM fructosyl valyl histidine, 5 mM phosphate buffer (pH 8.0), 0.003U of the inventive oxidase) was incubated at 37° C. for 2 hours, diluted (10×) and then assayed for the reaction products in a TSK gel Amide-80 column (available from Tosoh Co., Ltd.). As a control, the same procedure was repeated except for using a buffer instead of the enzyme.
Reaction solution was assayed by HPLC to identify reaction products. First, 50 μl of reaction solution (2 mM fructosyl valyl histidine, 5 mM phosphate buffer (pH 8.0), 0.003U of the inventive oxidase) was incubated at 37° C. for 2 hours, diluted (10×) and then assayed for the reaction products in a TSK gel Amide-80 column (available from Tosoh Co., Ltd.). Similarly, a control sample was obtained by using a buffer instead of the enzyme and assayed.

Data set [2] in a line: Km value for fructosyl valyl histidine (Lineweaver-Burk plot). Format: biochemical. The settings on record: purified oxidase. As for the experimental part:
In the above-described activity assay, the activity of the oxidase was monitored using different concentrations of fructosyl valyl histidine (substrate), and Michaelis constant (Km) was determined from a Lineweaver-Burk plot.
In the above-described activity assay, activity was monitored using different concentrations of fructosyl valyl histidine (substrate), and Michaelis constant (Km) was determined from a Lineweaver-Burk plot.

The format of data set [3] is physicochemical. Conditions: pH 8. As for the experimental part:
For example, 200 mM potassium phosphate buffer (pH 8.0) is used for a treatment at 45° C. for 10 minutes to determine the remaining activities of the oxidases of the invention. The oxidases of the invention having high stability at a high temperature range are particularly preferable for industrial use. The oxidases of the invention may, for example, have a remaining activity of 50% or higher, preferably 70% or higher, and more preferably 80% or higher under the above-described conditions. For example, 200 mM potassium phosphate buffer (pH 8.0) is used for a treatment at 45° C. for 10 minutes. Then, the remaining activities of the enzymes of the invention are determined. The oxidases of the invention having high stability at a high temperature range are particularly preferable for industrial use. The oxidases of the invention that have less action on ε-fructosyl lysine may, for example, have a remaining activity of 50% or higher, preferably 70% or higher, more preferably 80% or higher under the above-described conditions. […] Next, the physiochemical properties of these oxidases were determined. […] Each crude enzyme sample was heat-treated at 45° C. for 10 minutes, and then its activity for fructosyl valyl histidine was determined and compared to the activity before treatment. […]

In general, Km refers to the concentration of substrate that gives half-maximal velocity.

B1: Eupenicillium terrenum ATCC 18547: fructosyl peptide oxidase produced by Eupenicillium terrenum ATCC 18547 with less action on ε-fructosyl lysine; amino acid sequence SEQ ID NO: 3 (protein, listed as Eupenicillium terrenum)
chain: MAHSRASTKVVVVGGGGTIGSSTALHLIRSGYTPSNITVLDVYKTPSLQSAGHDLNKIMGIRLRNGPDLQLSLESLDMWQNDELFKPFFHQVGMIDCSSSKEGIENLRRKYQTLLDAGIGLEKTNVWLESEDEILAKAPNFTREQVKGWKGLFCTDGGWLAAAKAINAIGIFLQDKGVKFGFGGAGTFQQPLFAADGKTCIGLETTDGTKYFADKVVLAAGAWSPTLVDLEDQCVSKAWVFAHIQLTPKEADAYKNVPVVYDGEYGFFFEPNEYGVIKVCDEFPGFSRFKLHQPYGAASPKMISVPRSHAKHPTDTYPDASEVTIRKAIARFLPEFKDKELFNRTMCWCTDTADANLLICEHPKWKNFILATGDSGHSFKLLPNIGKHVVELLEGSLSQEMAGAWRWRPGGDALRSRRGAPAKDLAEMPGWKHDAHL
For B1, the “reaction product identified by HPLC” value in data set [1] is reported as “a peak was detected only for valyl histidine”. Also, the Km in data set [2] was 4.25 mM. Further, the “remaining activity following heat treatment at 45° C. for 10 minutes” value in data set [3] is listed as “approximately 100%”.

(Values after patent publication US7419813B2, “Fructosyl peptide oxidase” (Kikkoman Corporation, priority 2001, dated 2008).)
